Test results taken from PMC4658667.

Legend:
[1] = biological target: CdiI^Nlact immunity protein from Neisseria lactamica ATCC 23970, His6-tagged (Neisseria lactamica ATCC 23970); experiment: BLI
[2] = biological target: CdiIo11^EC869 immunity protein from Escherichia coli EC869, His6-tagged (Escherichia coli EC869); experiment: BLI

| Substance | Kd [1] [µM] | Kd [2] [µM] |
| --- | --- | --- |
| CdiA-CTo11^EC869, orphan-11 CdiA-CT toxin from Escherichia coli EC869 (domain or fragment) | 82 |  |
| CdiA-CTo11^EC869/Δβ4β5, CdiA-CTo11^EC869 with the β-hairpin (Lys242–Thr252) replaced by a Gly-Ser-Gly linker (domain or fragment) |  | > 300 |
